Results as given in patent US20240390531A1 (IMAGINAB, published 2024).
Numbering of substitutions follows the chain as printed. Values belong to the binder of their own block, whether it stands above or below them.

Experiments:
human FAP on cells = target: T1, human FAP on cells (human, UniProt Q12884 1-760); test: flow cytometry on U87-MG glioblastoma cells (FIG. 58B)
T1 construct: whole, on cells; The cell line is named under assay; also called HT1080 human FAP cells; HT1080-hFAP cells
Method: As disclosed herein, the binding of constructs to cellular targets was assessed using flow cytometry. Stock of 2.5× serial dilution of minibodies were created starting from a concentration of 100 nM in […] FACS buffer (PBS 2% FBS). Cells were added to a Corning V-bottom polypropylene cell culture plate at 200,000 cells/well. The cells were centrifuged at 100 rpm for 3 minutes and the supernatant discarded. The minibody dilution series were transferred to the plate containing cell pellets and incubated for 1 hr at 4° C. The plate was then washed 3 times with FACS buffer at 200 µl/well, discarding supernatant after each wash by centrifugation at 1000 rpm. 50 µl/well of detection antibody R&D AlexaFluor-647 Goat anti Human (H+L) was added at a 1:100 dilution in FACS buffer and incubated at 4° C. 1 hr. The plate was washed 3 times with FACS buffer at 200 µl/well, discarding supernatant after each wash by centrifuging at 1000 rpm. Cells were then fixed by adding 100 µl of 1% paraformaldehyde in PBS and incubating at room temperature for 15 minutes. 100 µl of PBS were added to each well and the plate was analyzed by flow cytometry using the allophycocyanin fluorescence setting.

[1] = target: T2, purified human FAP antigen (human, UniProt Q12884 26-760, limits assumed); test: ELISA, plate coated with purified human FAP antigen (FIG. 56A-56C)
Method: (§1) Binding kinetics of the novel antigen binding constructs to a purified human FAP antigen was assessed using ELISA. For this assay, a 96 well ELISA plate was coated with the human-FAP antigen diluted to a concentration of 2 mg/mL in coating buffer (0.05M sodium carbonate-bicarbonate buffer, pH 9.6). 100 μl of this coating solution was added to each well in the plate and incubate at 4° C. overnight. The plate was washed 3 times with 300 μl per well of washing buffer (PBS with 0.05% Tween-20). After the last wash, the plate was blocked by adding to each well 200 μl of blocking buffer (PBS with 1% BSA) warmed to room temperature. The plate was then incubated at room temperature for 1 hour under gentle agitation. After blocking, the plate was washed 3 times with 300 μl per well of washing buffer. Dilution samples for each minibody were created by making 2.5× dilutions from a starting sample at 100 ng/mL, or 250 ng/mL, or 1000 ng/mL or 3000 ng/mL in 100 μL sample buffer (PBS with 1% BSA). The dilution samples were transferred to the assay plate and incubated at room temperature for 1 hour under gentle agitation. The plate was then washed 3 times with 300 μl per well of washing buffer.
(§2) Detection was performed by adding 100 μl of HRP labeled detection secondary antibody at an appropriate dilution and incubating the plate at room temperature for 1 hour under gentle agitation. The plate was then washed 3 times with 300 μl per well of washing buffer. For color development, 100 μl of TMB substrate regent, pre-warmed to room temperature, was added to the plate and incubated in the dark at room temperature for 15 min. The reaction was then stopped by adding 100 μl of 650 nm stop solution to the plate and mixed for 1 min at room temperature under gentle agitation. The plate is recorded by reading OD at 650 nm in a plate reader within 20 min after terminating the reaction.

[2] = target: T2, purified human FAP antigen; test: ELISA, plate coated with purified human FAP antigen (FIG. 91A)
Method: as §1

[3] = target: T2, purified human FAP antigen; test: ELISA, plate coated with purified human FAP antigen (FIG. 91F)
Method: as §1

[4] = target: T2, purified human FAP antigen; test: ELISA, plate coated with purified human FAP antigen (FIG. 56D-56E)
Method: as §1, §2

FAP = FAP (UniProt Q12884 26-760, limits assumed); test: binding kinetics, method not stated (FIG. 42A)

B4: IAB16M2-29 (other)
chain: QVQLVQSGAEVKKPGASVKVSCKASGYTFTEYTIHWVRQAPGQRLEWIGGINPNNGIPNYNQKFKGRVTITVDTSASTAYMELSSLRSEDTAVYYCARRRIAYGYDEGHAMDYWGQGTLVTVSSGSTSGGGSGGGSGGGGSSDIVMTQSPDSLAVSLGERATINCKSSQSLLYSRNQKNYLAWYQQKPGQPPKLLIFWASTRESGVPDRFSGSGSGTDFTLTISSLQAEDFAVYYCQQYFSYPLTFGQGTKVEIKEPKSSDKTHTCPPCPPCGGGSSGGGSGGQPREPQVYTLPPSREEMTKNQVSLTCLVKGFYPSDIAVEWESNGQPENNYKTTPPVLDSDGSFFLYSKLTVDKSRWQQGNVFSCSVMHEALHNHYTQKSLSLSPG
Kd [4]: ~1 nM

B6: IAB16C1-20 (other)
chain: DIVMTQSPDSLAVSLGERATINCKSSQSLLYSRNQKNYLAWYQQKPGQPPKLLIFWASTRESGVPDRFSGSGFGTDFTLTISSLQAEDVAVYYCQQYFSYPLTFGQGTKVEIKSGGGGQVQLVQSGAEVKKPGASVKVSCKTSRYTFTEYTIHWVRQAPGQRLEWIGGINPNNGIPNYNQKFKGRVTITVDTSASTAYMELSSLRSEDTAVYYCARRRIAYGYDEGHAMDYWGQGTLVTVSSGGCPPCPPC
Kd [4]: ~1 nM

B7: IAB16C1-38 (other)
chain: B6 chain with F73S, V89F, F98Y, T142A, R144G
Kd [4]: ~1 nM

B9: IAB16M1-8 (other)
chain: EIVLTQSPGTLSLSPGERATLSCRASQSVTSSYLAWYQQKPGQAPRLLINVGSRRATGIPDRFSGSGSGTDFTLTISRLEPEDFAVYYCQQGIMLPPTFGQGTKVEIKGSTSGGGSGGGSGGGGSSEVQLLESGGGLVQPGGSLRLSCAASGFTFSSYAMSWVRQAPGKGLEWVSAIIGSGASTYYADSVKGRFTISRDNSKNTLYLQMNSLRAEDTAVYYCAKGWFGGFNYWGQGTLVTVSSEPKSSDKTHTCPPCPPCGGGSSGGGSGGQPREPQVYTLPPSREEMTKNQVSLTCLVKGFYPSDIAVEWESNGQPENNYKTTPPVLDSDGSFFLYSKLTVDKSRWQQGNVFSCSVMHEALHNHYTQKSLSLSPG
Kd (human FAP on cells): ~0.1 nM
Kd [1]: ~0.1 nM

B11: IAB16C3-21 (other)
chain: DIVMTQSPDSLAVSLGERATINCKSSQSLLYSRNQKNYLAWYQQKPGQPPKLLIFWASTRESGVPDRFSGSGFGTDFTLTISSLQAEDVAVYYCQQYFSYPLTFGQGTKVEIKGGGSGGGGQVQLVQSGAEVKKPGASVKVSCKTSRYTFTEYTIHWVRQAPGQRLEWIGGINPNNGIPNYNQKFKGRVTITVDTSASTAYMELSSLRSEDTAVYYCARRRIAYGYDEGHAMDYWGQGTLVTVSSGGCPPCPPC
Kd [4]: ~1 nM

B12: 9A2 (other)
chain 1: EVQLQQSGPELVKPGASVKMSCKASGYTFTSYVMHWLKQKPGQGLEWIGYINPHNDGTKYNEKFKGKATLTSDKSSSTAYMELSSLTSEDSAVYYCARWGIYYGYGAWFAYWGQGTLVTVSA
chain 2: DIVMTQSQKFMSTSVGDRVSVTCKASQNVGTYVAWYQQKPGQSPKALIYSASNRYSGVPDRFTGSGSGTDFTLTISNVQSEDLAEYFCQQYNTYPYTFGGGTKLEIK
notes: also called murine 9A2 construct
Kd [2]: ~1 nM

Second part, the binder after the results:

Kd (human FAP on cells): ~0.1 nM
Kd [1]: ~0.1 nM
B1: IAB16M2-9 (other)
chain: EVQLLESGGGLVQPGGSLRLSCAASGFTFSSYAMSWVRQAPGKGLEWVSAIIGSGASTYYADSVKGRFTISRDNSKNTLYLQMNSLRAEDTAVYYCAKGWFGGFNYWGQGTLVTVSSGSTSGGGSGGGSGGGGSSEIVLTQSPGTLSLSPGERATLSCRASQSVTSSYLAWYQQKPGQAPRLLINVGSRRATGIPDRFSGSGSGTDFTLTISRLEPEDFAVYYCQQGIMLPPTFGQGTKVEIKEPKSSDKTHTCPPCPPCGGGSSGGGSGGQPREPQVYTLPPSREEMTKNQVSLTCLVKGFYPSDIAVEWESNGQPENNYKTTPPVLDSDGSFFLYSKLTVDKSRWQQGNVFSCSVMHEALHNHYTQKSLSLSPG

Kd [2]: ~1 nM
B2: IAB16M2-55 (other)
chain: QVQLVQSGAEVKKPGASVKVSCKASGYTFTSYVMHWVRQAPGQGLEWMGYINPHNDGTKYAQKFQGRVTMTRDTSTSTVYMELSSLRSEDTAVYYCARWGIYYGYGAWFAYWGQGTLVTVSSGSTSGGGSGGGSGGGGSSDIQMTQSPSSLSASVGDRVTITCKASQNVGTYVAWFQQKPGKAPKSLIYSASNRYSGVPSRFSGSGSGTDFTLTISSLQPEDFATYYCQQYNTYPYTFGQGTKLEIKEPKSSDKTHTCPPCPPCGGGSSGGGSGGQPREPQVYTLPPSREEMTKNQVSLTCLVKGFYPSDIAVEWESNGQPENNYKTTPPVLDSDGSFFLYSKLTVDKSRWQQGNVFSCSVMHEALHNHYTQKSLSLSPG

Kd [3]: ~1 nM
B3: IAB16M1-49 (other)
chain: DIQMTQSPSSLSASVGDRVTITCKASQDVGIAVAWYQQKPGKAPKLLIYWASTRHTGVPSRFSGSGSGTDFTFTISSLQPEDIATYYCQQYSRYPYTFGQGTKLEIKGSTSGGGSGGGSGGGGSSDVQLVESGGGLVKPGGSLRLSCTVSGFTFSSYTMSWVRQAPGKGLEWVSTISSGGSYTYYADSVKGRFTISRDNAKNSLYLQMNSLRAEDTAVYYCTRDQVGYAMDYWGQGTLVTVSSEPKSSDKTHTCPPCPPCGGGSSGGGSGGQPREPQVYTLPPSREEMTKNQVSLTCLVKGFYPSDIAVEWESNGQPENNYKTTPPVLDSDGSFFLYSKLTVDKSRWQQGNVFSCSVMHEALHNHYTQKSLSLSPG

Kd (human FAP on cells): ~0.1 nM
Kd [1]: ~0.1 nM
B5: IAB16M2-13 (other)
chain: B4 chain with A24T, G26R, S215F, F231V
notes: also called Sibrotuzumab minibody

Kd (FAP): 3.34 nM
koff (FAP): 0.00257 s⁻¹
kon (FAP): 769000 M⁻¹ s⁻¹
Kd (human FAP on cells): ~0.1 nM
Kd [1]: ~0.1 nM
B8: IAB16M1-12 (other)
chain: DIVMTQSPDSLAVSLGERATINCKSSQSLLYSRNQKNYLAWYQQKPGQPPKLLIFWASTRESGVPDRFSGSGFGTDFTLTISSLQAEDVAVYYCQQYFSYPLTFGQGTKVEIKGSTSGGGSGGGSGGGGSSQVQLVQSGAEVKKPGASVKVSCKTSRYTFTEYTIHWVRQAPGQRLEWIGGINPNNGIPNYNQKFKGRVTITVDTSASTAYMELSSLRSEDTAVYYCARRRIAYGYDEGHAMDYWGQGTLVTVSSEPKSSDKTHTCPPCPPCGGGSSGGGSGGQPREPQVYTLPPSREEMTKNQVSLTCLVKGFYPSDIAVEWESNGQPENNYKTTPPVLDSDGSFFLYSKLTVDKSRWQQGNVFSCSVMHEALHNHYTQKSLSLSPG
notes: also called Sibrotuzumab minibody; the control

Kd [2]: ~1 nM
B10: IAB16M1-54 (other)
chain: DIQMTQSPSSLSASVGDRVTITCKASQNVGTYVAWFQQKPGKAPKSLIYSASNRYSGVPSRFSGSGSGTDFTLTISSLQPEDFATYYCQQYNTYPYTFGQGTKLEIKGSTSGGGSGGGSGGGGSSQVQLVQSGAEVKKPGASVKVSCKASGYTFTSYVMHWVRQAPGQGLEWMGYINPHNDGTKYAQKFQGRVTMTRDTSTSTVYMELSSLRSEDTAVYYCARWGIYYGYGAWFAYWGQGTLVTVSSEPKSSDKTHTCPPCPPCGGGSSGGGSGGQPREPQVYTLPPSREEMTKNQVSLTCLVKGFYPSDIAVEWESNGQPENNYKTTPPVLDSDGSFFLYSKLTVDKSRWQQGNVFSCSVMHEALHNHYTQKSLSLSPG
